Data: the supplement of paper PMC10567573

B1: RHOBTB3 (parent)
chain: QLQSMPSRELASMNLDIVDLLKKA
B2: KLHL14 (parent)
chain: CAVLDDSIYLVGGYSWSMGAYKSS

Variants of: B1
Experiment: protein stability index of a GFP-peptide fusion (GPS, HEK-293T) (PSI 1-6); higher = more stable
Details: c terminus: a fixed tail appended
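Further: lentivirally expressed fusions sorted by FACS into six bins by GFP to DsRed ratio, PSI derived from sequencing read proportions per bin multiplied by bin number.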

Variant | protein stability index
L20G | 4.62
L20S | 4.06
L20N | 3.71
L20D | 4.68
L20T | 3.96
L20P | 4.31
L20W | 3.51
L20F | 3.42
L20M | 3.75
L20I | 3.42
L20Q | 3.9
L20R | 3.94
L20V | 2.9
L20K | 4.33
L20Y | 3.95
L20C | 3.86
L20A | 3.52
L20H | 3.63
L20E | 4.84
V18C | 3.69
V18E | 4.19
V18K | 3.21
V18M | 3.41
V18W | 2.61
V18H | 3.5
V18Q | 3.89

Variant | protein stability index
V18R | 2.73
V18P | 3.21
V18S | 4.08
V18T | 3.77
V18F | 2.39
V18D | 3.96
V18N | 3.9
V18A | 4.01
V18I | 3.28
V18Y | 2.6
V18L | 3.37
V18G | 3.65
D16T | 3.05
D16S | 3.23
D16V | 2.22
D16Y | 2.62
D16R | 2.5
I17V | 3.89
I17R | 3.4
I17S | 4.37
I17G | 3.46
I17D | 4.23
I17W | 3.45
I17Q | 4.55
I17F | 3.63
I17K | 3.23

Variant | protein stability index
I17C | 3.87
I17H | 3.94
I17N | 3.88
I17L | 3.34
I17P | 3.39
I17Y | 3.74
I17M | 3.39
I17T | 3.58
I17A | 3.63
L21H | 4.33
L21A | 3.47
L21R | 3.93
L21C | 3.47
L21V | 4.12
L21W | 3.35
L21Q | 3.87
L21I | 3.56
L21S | 4.12
L21G | 3.91
L21P | 3.84
L21M | 4.02
L21Y | 2.96
L21D | 4.67
L21K | 3.01
L21F | 3
L21T | 3.74

Variant | protein stability index
L21N | 3.27
D19S | 3.45
D19K | 3.08
D19E | 3.37
D19G | 2.52
D19N | 3.15
D19L | 1.48
D19A | 3
D19F | 2.01
D19R | 2.99
D19Q | 3.58
D19M | 2.09
D19T | 2.85
D19I | 1.86
D19W | 2.16
D19H | 2.93
D19C | 2.96
D19P | 2.83
D19V | 2.16
D19Y | 2.28
K22A | 3.01
K22Q | 3.93
K22H | 3.67
K22D | 4.32
K22M | 2.9
K22R | 3.21

Variant | protein stability index
K22C | 2.76
K22V | 2.15
K22I | 2.32
K22S | 3.55
K22G | 3.75
K22T | 3.74
K22W | 2.04
K22L | 2.07
K22F | 2.29
K22P | 3.57
K22N | 4.23
K22E | 4.71
K22Y | 2.61
K23P | 3.22
K23T | 3.4
K23N | 3.97
K23E | 3.69
K23R | 3.52
K23G | 3.16
K23F | 2.33
K23I | 2.48
K23W | 1.3
K23A | 2.92
K23L | 2.58
K23Y | 2.71
K23V | 2.81

Variant | protein stability index
K23H | 3.05
K23M | 2.32
K23S | 3.05
K23C | 2.57
K23D | 4.03
K23Q | 3.36
A24H | 3.77
A24E | 4.56
A24R | 3.11
A24D | 4.65
A24V | 3.34
A24K | 3.54
A24M | 3.39
A24S | 3.47
A24C | 3.14
A24L | 3.56
A24W | 4.13
A24I | 2.98
A24T | 3.95
A24N | 4.14
A24Y | 3.35
A24P | 3.92
A24G | 3.92
A24Q | 3.49
A24F | 3.41

Variants of: B2
Experiment: as above
Details: c terminus: a fixed tail appended

Variant | protein stability index
C1G | 2
C1D | 2.42
C1N | 1.74
C1H | 1.74
C1F | 3.37
C1P | 2.28
C1M | 1.5
C1K | 2.42
C1E | 1.3
C1I | 2.83
C1A | 1.72
C1L | 2.09
